What was measured:
[1] = molecular target: recombinant tick anticoagulant peptide (rTAP) (UniProt P17726)
[2] = molecular target: activated, fibrinogen-bound GP IIb/IIIa on activated mouse platelets (mouse) (UniProt Q9QUM0); assay: histology of the wire-injured mouse femoral artery after bead perfusion
[3] = molecular target: activated, fibrinogen-bound GP IIb/IIIa on activated mouse platelets (mouse) (UniProt Q9QUM0); assay: ex vivo 11.7 T MRI of the wire-injured mouse femoral artery after bead perfusion

Chain of activated, fibrinogen-bound GP IIb/IIIa on activated mouse platelets (mouse) (Q9QUM0 32-1033, chain 1 of 2): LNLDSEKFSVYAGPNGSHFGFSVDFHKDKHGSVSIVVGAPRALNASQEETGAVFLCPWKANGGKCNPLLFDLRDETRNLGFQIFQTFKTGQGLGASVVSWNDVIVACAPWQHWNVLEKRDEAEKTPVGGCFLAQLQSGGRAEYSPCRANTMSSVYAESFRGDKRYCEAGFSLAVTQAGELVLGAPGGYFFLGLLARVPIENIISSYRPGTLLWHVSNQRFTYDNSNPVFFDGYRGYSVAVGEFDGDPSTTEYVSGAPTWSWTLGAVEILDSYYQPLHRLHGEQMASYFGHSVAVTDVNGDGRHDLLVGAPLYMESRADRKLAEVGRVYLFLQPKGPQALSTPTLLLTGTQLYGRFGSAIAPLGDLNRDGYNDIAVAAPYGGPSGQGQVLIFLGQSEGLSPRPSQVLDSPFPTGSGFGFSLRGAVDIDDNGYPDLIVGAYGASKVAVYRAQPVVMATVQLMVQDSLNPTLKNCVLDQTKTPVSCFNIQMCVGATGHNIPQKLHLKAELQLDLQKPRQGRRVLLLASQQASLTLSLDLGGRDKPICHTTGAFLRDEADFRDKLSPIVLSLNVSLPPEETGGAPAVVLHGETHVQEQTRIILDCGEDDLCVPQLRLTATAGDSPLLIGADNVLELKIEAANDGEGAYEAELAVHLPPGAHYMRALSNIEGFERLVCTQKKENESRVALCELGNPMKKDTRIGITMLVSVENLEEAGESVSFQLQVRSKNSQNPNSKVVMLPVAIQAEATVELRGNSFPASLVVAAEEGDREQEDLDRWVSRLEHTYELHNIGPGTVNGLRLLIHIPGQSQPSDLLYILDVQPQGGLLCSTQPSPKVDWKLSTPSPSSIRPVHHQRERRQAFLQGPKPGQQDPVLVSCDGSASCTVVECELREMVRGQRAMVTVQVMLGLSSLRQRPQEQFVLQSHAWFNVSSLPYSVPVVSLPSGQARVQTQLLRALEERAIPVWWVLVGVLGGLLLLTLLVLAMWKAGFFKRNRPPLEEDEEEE
Chain of activated, fibrinogen-bound GP IIb/IIIa on activated mouse platelets (mouse) (O54890 26-787, chain 2 of 2, further chain): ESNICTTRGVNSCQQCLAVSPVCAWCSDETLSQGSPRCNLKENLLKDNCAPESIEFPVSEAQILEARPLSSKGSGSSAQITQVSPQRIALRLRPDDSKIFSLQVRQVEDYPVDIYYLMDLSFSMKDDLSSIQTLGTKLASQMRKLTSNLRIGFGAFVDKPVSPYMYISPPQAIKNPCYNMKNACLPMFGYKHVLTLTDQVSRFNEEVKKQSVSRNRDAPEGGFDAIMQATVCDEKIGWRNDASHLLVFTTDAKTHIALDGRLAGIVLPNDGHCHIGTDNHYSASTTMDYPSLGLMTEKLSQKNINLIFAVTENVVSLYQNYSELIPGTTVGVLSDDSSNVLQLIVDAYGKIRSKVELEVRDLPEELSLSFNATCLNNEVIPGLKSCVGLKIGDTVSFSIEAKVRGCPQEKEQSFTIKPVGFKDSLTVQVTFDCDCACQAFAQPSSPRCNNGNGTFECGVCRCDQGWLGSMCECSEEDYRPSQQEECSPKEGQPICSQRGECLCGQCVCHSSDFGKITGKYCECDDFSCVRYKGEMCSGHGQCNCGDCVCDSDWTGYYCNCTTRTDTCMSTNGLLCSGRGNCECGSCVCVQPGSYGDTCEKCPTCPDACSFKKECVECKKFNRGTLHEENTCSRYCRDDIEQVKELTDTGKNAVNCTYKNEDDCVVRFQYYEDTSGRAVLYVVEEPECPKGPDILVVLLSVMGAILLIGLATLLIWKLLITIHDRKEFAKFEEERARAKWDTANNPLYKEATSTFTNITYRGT
Chain of recombinant tick anticoagulant peptide (rTAP) (P17726 whole entry, the tested form may be a part): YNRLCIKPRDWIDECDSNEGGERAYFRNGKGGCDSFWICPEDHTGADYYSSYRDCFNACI

Question: Which “cleavage of chromogenic substrate (spectrozyme FXa #222) by factor Xa (500 pM), OD at 405 nm” value [1] does the source give for factor Xa here?
Answer: inhibition of factor Xa activity by rTAP, scFv anti-LIBS-TAP, and non-targeted mut-scFv-TAP, but not by scFv anti-LIBS

Question: With “scFv anti-LIBS (anti-LIBS single-chain antibody)” as the substance, how does the MPIO-binding (beads per section) (beads per section) [2] read?
Answer: 9.98

Question: What about the luminal areas of low signal suggesting MPIO-accumulation (ex vivo MRI) [3] of the same substance?
Answer: 23.7

Question: For “irrelevant single-chain antibody conjugated to MPIO (Control-MPIO) (scFv)”, which MPIO-binding (beads per section) (beads per section) [2] is on record?
Answer: 0.5

Question: What about the luminal areas of low signal suggesting MPIO-accumulation (ex vivo MRI) [3] of the same substance?
Answer: 6.2
